This note sets out measurements from the DeepSol protein solubility set.

This data set in a line: soluble on expression in E. coli; label from the status in PepcDB or PDB records.
As to “MIHSLFLINSSGDIFLEKHWKSVVSRSVCDYFFEAQERATEAENVPPVIPTPHHYLLSVYRHKIFFVAVIQTEVPPLFVIEFLHRVVDTFQDYFGVCSEPVIKDNVVVVYEVLEEMLDNGFPLATESNILKELIKPPTILRTVVNTITGSTNVGDQLPTGQLSVVPWRRTGVKYTNNEAYFDVVEEIDAIIDKSGSTVTAEIQGVIDACVKLTGMPDLTLSFMNPRLLDDVSFHPCVRFKRWESERILSFIPPDGNFRLLAYHVSAQNLVAIPVYVKHSISFRDSSSLGRFEITVGPKQTMGKTIEGVIVTSQMPKGVLNMSLTPSQGTHTFDPVTKMLSWDVGKINPQKLPSLKGTMGLQVGASKPDENPTINLQFKIQQLAISGLKVNRLDMYGEKYKPFKGIKYMTKAGKFQVRT”, the “soluble on expression in E. coli” value is reported as “not soluble”.

Take “MGSDKIHHHHHHMTQNTPLFSMESVSVRHNSVPALDAVSWTLHRGAHCAVLGGNGAGKSTLLRLAAGAIRPDQHDGGTVLWFPRGSAEDSPIAVRTHCGLVSAEQQEHYLRRSWRITGEEIVLSGYFGTDMLYRPAGTAQRHAAARLAKALDAEHLMPVMLEAMSQGQLRKILLARAMVHSPQLLLLDEVCEGLDAAARREMLAAIDRAAALGTTVLMSGHRAGQFPDCIRQAVLLRQGRLVFTGGLHQALHLMRTTHQPLPAGASDTAAGQCSCCTPPPACAGAAPVVEIEHADVYLGRTPVLHDITWSILPGQNWVVRGPNGAGKSTLLRLLYGDQRQAWGGIVRWFGMAGPVPLEEVRRNVALVSDRVQALYGHDGYHSTRLELNGEELVHTGFYDSTGLWGKTPDAQQHAAALRWMDRLGIAALAGTDIRRMSYGTLRRFMLARALVRDPQLLILDEPLSGLDESARRIMLTTLSALMRSGRQLVLVTHHQEDIQPETTHELHLNAGRITYCGPVCPAGDTL”: the “soluble on expression in E. coli” value was “not soluble”.

On to “SKELKEIKSELLNYTDDTLPAMERVDAIRDDLSHWRRSQFATYTYKDADKIRNKIASNIREREKISKELEAYGSTIWPGEEQQTFQRLMRQWKQYLVTMDQYNESMLAGNKTEALAVLSNSLNDFEAVDSDLNELIRLLKVAMDSNKNHILSSVN”, for which the “soluble on expression in E. coli” value is reported as “not soluble”.

Take “MTTFPILRLPEKSLKIAIRCLTMEQIIKFSLISESTKRTAESLNLQADPFWICFGESVHISVHANFVENYQQDIPWNPVEVDLRTLLDHFQSVLHTNKFEYFFV”: the “soluble on expression in E. coli” value was “not soluble”.

Consider “DIQMTQTTSSLSASLGDRVTISCSASQDISSYLNWYQQKPEGTVKLLIYYTSSLHSGVPSAFSGSGSGTDYSLTISNLEPEDFATYYCQQYSKFPWTFGGGTKLEIKRADAAPTVSIFPPSSEQLTSGGASVVCFLNNFYPKDINVAWAIDGSAAANGVLNSWTDQDSKDSTYSMSSTLTLTADAYEAANSYTCAATHKTSTSPIVKSFNANEC”, for which the “soluble on expression in E. coli” value is recorded as “soluble”.

For the sequence “MDDVRLHAIYQDITRDYLPPASLNHLMLLSKQTQHKLSFKSAPIPDLQPFFKNFTSKTPGSAKESPCSSTAKISSSISISSQCIFNVVILSFVFTSQNLNLPSHPALHNVSPESLNDRLMTQLECANSPRLACELWVGTDKEPILSPNSVSYRVMQPNEFES”, the “soluble on expression in E. coli” value is on record as “soluble”.

Regarding “GPGSMSTSQPIVKPFIYLRIPSEDARPVEELHFNGHNEAELRHTLTRCFRQSLLSDDQKKDMARHLADKASESAKKHAVKGNGDASAAGSGAEPPVDVEQQQAAMIDQYLEQASYEIIPVTMPMRSTQYIGTSLYIDDSGAFKDLPLNYRASKLAQREIRGDAFLLSNHDDPALDEWGRVDCPLQRYEELYANPPQIAYDPSNQAQMTQAAMLRETETKKISLEDYEKAQKAKEDGNRLFAANDLPAAVQAYSMTVDLTDGRRDLLPNEEAATQLRLSALLNRCLCFTRLKKFPEAVRDAQAAAYLDPKSMKAYYRLTYALCGAQEYEAAAQACEKYAQLGGAEEDVTAMRTAVAAGETEVKKAQKQIFSKMFRS”, the “soluble on expression in E. coli” value is “soluble”.

For “AGQCSQNEYFDSLLHACIPCQLRCSSNTPPLTCQRYCNASVTNSVKG”, the “soluble on expression in E. coli” value is on record as “soluble”.

Consider “MKVRHPFKVVVVTGVPGVGKTTVIKELQGLAEKEGVKLHIVNFGSFMLDTAVKLGLVEDRDKIRTLPLRRQLELQREAAKRIVAEASKALGGDGVLIIDTHALVKTVAGYWPGLPKHVLDELKPDMIAVVEASPEEVAARQARDTTRYRVDIGGVEGVKRLMENARAASIASAIQYASTVAIVENREGEAAKAAEELLRLIKNL”, for which the “soluble on expression in E. coli” value is listed as “soluble”.

Turning to “MSTSQTKNVSIDTIKEFMYQVLLKVGSDEENARMVRDTLIAADLRGMDTHGIQRFKTVYIDRIKKGMINPTAKPSIIRETSTTCVLDGNNGFGHVNGTIGMKMAIEKAKKYGMGMVVVRNSTHFGIAGYYSLLAAQEGCIGICGTNARSSVAATFGDEPILGTNPLAIGIPSDEAFPYCFDGATSISPTGRFEKYVRMGKTVDKSWASMKGGKPIEDPKELLENYPKGKAYLHPLGGSDEVSGSHKGYCLSEFVEIMSSCLSIANFLNHIEEEKEKSGKFSLGHFFIAINVECFRDLNEFKKNVGDINRTLRNTDKLPGHDRIYTAGEKEYETEQKRRKFGDDLPLVTINEMKELSSFYNVPLPF”, the “soluble on expression in E. coli” value is “soluble”.

Turning to “MTENELLTRCGGKCELCGSDVELAIYDLPASDGHENEIMICENCSSQIAAPDTMDMNHWRCLNDSMWSQVPAVQVMSYRMLKRLSGESWAQDLLDMLYLEDDLRAWGDAEAAAASDDTPPTLDSNGAVLNAGDTVVIIKDLNVKGTSFVAKRGTAVRNIALTNNPEHIEGRVNGTRIVILTCFVKKSLEHHHHHH”, the “soluble on expression in E. coli” value is on record as “soluble”.

“MSLTNHQVSYFSLQDVKLLSSPFLQAQQTDLHYILALDPDRLSAPFLREAGLTPKAPSYTNWENTGLDGHIGGHYLSALSMMYAATGDTAIYHRLNYMLNELHRAQQAVGTGFIGGTPGSLQLWKEIKAGDIRAGGFSLNGKWVPLYNIHKTYAGLRDAYLYAHSDLARQMLIDLTDWMIDITSGLSDNQMQDMLRSEHGGLNETFADVAEITGDKKYLKLARRFSHKVILDPLIKNEDRLNGMHANTQIPKVIGYKRVAEVSKNDKDWNHAAEWDHAARFFWNTVVNHRSVCIGGNSVREHFHPSDNFTSMLNDVQGPETCNTYNMLRLTKMLYQNSGDVDNSNKPDPRYVDYYERALYNHILSSQEPDKGGFVYFTPMRPGHYRVYSQPETSMWCCVGSGLENHTKYGEFIYAHQQDTLYVNLFIPSQLNWKEQGVTLTQETLFPDDEKVTLRIDKAAKKNLTLMIRIPEWAGNSKGYEITINGKKHLSDIQTGASTYLPIRRKWKKGDMITFHLPMKVSLEQIPDKKDYYAFLYGPIVLATSTGTENLDGEGHHHHHH”: the “soluble on expression in E. coli” value is on record as “soluble”.

Regarding “MSPIVSVPDITAPVENVPAILPKVVPGELIVNKPTGGDSDELFQYLVDILASPVYDVAIESPLELAEKLSDRLGVNFYIKREDKQRVFSFKLRGAYNMMSNLSREELDKGVITASAGNHAQGVALAGQRLNCVAKIVMPTTTPQIKIDAVRALGGDVVLYGKTFDEAQTHALELSEKDGLKYIPPFDDPGVIKGQGTIGTEINRQLKDIHAVFIPVGGGGLIAGVATFFKQIAPNTKIIGVEPYGAASMTLSLHEGHRVKLSNVDTFADGVAVALVGEYTFAKCQELIDGMVLVANDGISAAIKDVYDEGRNILETSGAVAIAGAAAYCEFYKIKNENIVAIASGANMDFSKLHKVTELAGLGSGK”, the “soluble on expression in E. coli” value is on record as “soluble”.

Consider “MGSDKIHHHHHHMTTSATKEALFSPDCLEFLAKLASNNERDWFKAHQAEYEAKVRTPALNFIGAMAPHIQQLSPRLTAVPKKVGGSLMRPQRDARFSSDKTPYKVNVGIQFRHFQGKDVHAPGLYLHIANDGCFLGAGIWHPDSKALSQIRSCIDDNPNAYKQALKQLSAAGFAMEGDSLQRPPKGYDKHHPMLDELKRKDFIAIKPLDTQQLFTKDFDTWCAEQFNQVNKLMGYLCFALDLDY”, for which the “soluble on expression in E. coli” value is given as “not soluble”.

For “GILELAGTVGCVGPRTPIAYMKYGCFCGLGGHGQPRDAIDWCCHGHDCCYTRAEEAGCSPKTERYSWQCVNQSVLCGPAENKCQELLCKCDQEIANCLAQTEYNLKYLFYPQFLCEPDSPKCD”, the “soluble on expression in E. coli” value is recorded as “soluble”.

As for “MAHHHHHHMSRNGELCLKKVIISYCPSNGAPNTRQFLATHLPHFHAKYPSVSIDLRPRLWPEMAITGVYRDGSERSYNTKNLSPMGIFLRLNNLVSTANDYDQPFCASHLHFQRRSVQGTWNPWLWNYETERRRTEAPQWRRKLSEKEWDYYVGQYSAQMKQEEDEIQRRVADRTCVQEQSTREVQERWKRHVVPRMQTDLEFNLSHFKRQHARGQLQQRPVTMGEYRLFSVPDPRELGQDAVDTMRRRESHNMEVWWRKRKEQLKPP”, the “soluble on expression in E. coli” value was “not soluble”.

In the case of “MGSDKIHHHHHHMLNSLSIFEQAIRALPIDRSLTRQDLFIDGFLLQQEQELSVYYSPIGEYINRSAKIVFIGITPGFEQMRLAYEEAADAFHHGATIEETSKLVKYSASFAGPMRRNLTAMLDELELHRLLNIASTATLFHTNQELLHTTSILRHPVFYRDKNYTGHQPKIDRTPLLQHYAYEHFAAELNQLPDPVILVPFGRVVESTVRTLLHQGRIKKHTVLFGFPHPSGANGHRKRQFEENKDYLMKQLNSYFNT”, the “soluble on expression in E. coli” value is given as “not soluble”.

As for “DRLGPHRAAMMASLNDAVKAASQHHQAEAFGQGDMFGVLTDAPEEVENKYTQVPPWPEKVWLEGERETLGLYLTGHPINAYLKELNKYTSCRLKDATPTRRDQ”, the “soluble on expression in E. coli” value is given as “not soluble”.

Turning to “MGSDKIHHHHHHMYVDEIHVEKCGPLSVGVYGGNQESDAYERGDAVLAWWDPELQFEFVMIFDTHHKTKNIDYIIEAISERKEKLKELFSYPIHLAFHHTHMYLLALFTDELFIEKCDQDDEELACLICLRKGEFLYWLSVGDCFAYLFHSEKTKNGKGRLNKRKNYEYIGRKNIFAANTPCFTSGVRGLEKGMNHIVMATDGILECDKRRFDDDQSLIEILHDGSCLQIEPVLTNVLQWKGRDCATIIGWSIDTENKRCAN”, the “soluble on expression in E. coli” value is given as “not soluble”.

Take “MSTQFKLPLASPLTHGREDFAVSPSNGEAVARLDAWPDWAEGRLVLVGPAGCGKSHLARAWAAAAGAVVVEAANPDAASVDLSALRGRAVLVEDADRRAQGAAVSDEALFHILNMAGVDGGTVLLTGRTAPLTWSAEVADLRSRLNALSVAEIAEPDDAVLEAVLRRAFAAAWWKPEPDLYPYLLARLPRSAAEAQAAAALLAEAAADGRRELTKALAREVLEGFEGDEGLEHHHHHH”: the “soluble on expression in E. coli” value was “not soluble”.

Take “MSFIAYPCAVPTQRQVPMSPPTTPRILMKLCPIMEIPIIGGPRQNGTYNVFIFDLKIRKFIPHRCSSCAVKILEDHLSPMYASGSVIFMRNEVTQEVEQYVYSFETGGFQQVDYPELVYSAEKFTESSFIVMIENSDGKKVLIERGGNEAVRKLEYRLGKCVEMPKVEVQLLAAEEFDDADPWSDNDSLSSEHLDYNETLPAFKTTFCQDFQMYVLYIITSRGHYEKYIYNQSTSQFEILDCEKCPDTTREVDLLPKYAEFCEEIQAYVIHVFNSFTDRMEQYVFDSKIQGFVEVNQPELKYDSSKDQDPTSSIFFVLKGTTVIMRGAQGRLKKEVYCSIKKHFVEVPNSVIKSFDTQFMEKKQKMDKKKKAKKIKKSKKKASKESQELDVLVEKIRLCDDPFSDGPSCSTSPDIPEDAPDDGMSILKQKFVESLTTLYGGSLPPYVQKELEQI”: the “soluble on expression in E. coli” value was “not soluble”.

Turning to “MSNAMPWVRFYLYDWISGTNGMTSEQRGVYITLLVCMYEKKEPLKTDFETLARVCHCSQKKFAAIVEYLMRNDKLIEIDGRLWNLDVEEELNNLSEELDNFTFNNNEEKEVKYVN”, the “soluble on expression in E. coli” value is “not soluble”.

Take “MKPATFKEAVVLYEGMIVNQIKKLGIRKDYEEYYQCGLIGLWHAYERFDEKKGYFPAYAVVTVRGYILERLKKEFAVQERCVCVGEYEDIFHFEDVEIRVKDFMSVLDEKEKYIIFERFFVGKTMGEIALETEMTYYQVRWMYRQALEKMRDSVKG”: the “soluble on expression in E. coli” value is “not soluble”.
